# B1: neuron-derived neurotrophic factor (NENF) [human (endogenous in NTera2 and in fibroblasts)] / DJ-1 WT fused with FLAG [human] (parent complex)
# chain 1: GQTPRPAERGPPVRLFTEEELARYGGEEEDQPIYLAVKGVVFDVTSGKEFYGRGAPYNALTGKDSTRGVAKMSLDPADLTHDTTGLTAKELEALDEVFTKVYKAKYPIVGYTARRILNEDGSPNLDFKPEDQPHFDIKDEF
# chain 2: MASKRALVILAKGAEEMETVIPVDVMRRAGIKVTVAGLAGKDPVQCSRDVVICPDASLEDAKKEGPYDVVVLPGGNLGAQNLSESAAVKEILKEQENRKGLIAAICAGPTALLAHEIGFGSKVTTHPLAKDKMMNGGHYTYSENRVEKDGLILTSRGPGTSFEFALAIVEALNGKEVAAQVKAPLVLKD
# Variants of: B1
# Experiment: co-immunoprecipitation (anti-FLAG IP, immunoblot with anti-NENF), band intensity; DJ-1 KO DNLCs; NENF band relative to FLAG (LC)
row,percent of parent,Variant
1,0%,chain 2 E163K
2,23%,chain 2 C53A
3,73%,chain 2 H126A
4,45%,chain 2 V51A
